Results on nine molecules are retold here after publication PMC6099280, “Characterisation of a putative glutamate 5‐kinase from Leishmania donovani” (The Febs Journal, 2018).

Data set [1] addresses T1, LdG5K (Leishmania donovani, UniProt A0A0R6Y3I5).
T1 construct: gene G5K; tetramer about 105 kDa
T1 sequence (A0A0R6Y3I5 1-263): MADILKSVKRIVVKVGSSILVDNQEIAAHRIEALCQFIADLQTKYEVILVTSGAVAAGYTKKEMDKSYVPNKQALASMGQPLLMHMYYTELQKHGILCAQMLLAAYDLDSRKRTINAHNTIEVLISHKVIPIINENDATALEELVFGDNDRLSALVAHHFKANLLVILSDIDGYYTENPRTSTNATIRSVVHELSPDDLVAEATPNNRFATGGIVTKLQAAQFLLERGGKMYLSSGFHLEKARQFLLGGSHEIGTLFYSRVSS
Briefly: PK/LDH-coupled NADH oxidation assay, single point. It is filed as biochemical. Conditions: 1 mM compound; 100 mM Na glutamate, 5 mM ATP, 5 mM MgCl2, pH 7.4, 25 °C. From the text: PK/LDH-coupled NADH oxidation assay, single point on LdG5K

Data set [2] has as its target T1, LdG5K. The data set can be described thus: PK/LDH-coupled NADH oxidation assay. In kind it is biochemical. The source says: (§1) PK/LDH-coupled NADH oxidation assay on LdG5K
Data set [3] deals with the molecule itself. Briefly: SEC; Superdex 200 H/R 10/30, 50 mM Tris-HCl pH 7.2, 0.15 M NaCl, 0.5 mL/min, room temperature; mass estimated against protein standards; no proline.
Substrate in data set [4]: N[C@@H](CCC(=O)O)C(=O)O
The data set can be described thus: PK/LDH-coupled NADH oxidation assay, Hill fit. It is filed as biochemical, Leishmania donovani. Conditions: no proline, Hill slope 0.94 ± 0.09, pH 7.4, 25 °C.

Substrate in data set [5]: N[C@@H](CCC(=O)O)C(=O)O
The data set can be described thus: PK/LDH-coupled NADH oxidation assay. It is filed as biochemical, Leishmania donovani. The conditions noted are these: 5 mM ATP, 5 mM MgCl2, pH 7.4, 25 °C, no proline.
Source text: as §1

Substrate in data set [6]: Nc1ncnc2c1ncn2[C@@H]1O[C@H](COP(=O)(O)OP(=O)(O)OP(=O)(O)O)[C@@H](O)[C@H]1O
Briefly: PK/LDH-coupled NADH oxidation assay. Conditions: 150 mM Na glutamate, 5 mM MgCl2, pH 7.4, 25 °C. In kind it is biochemical, Leishmania donovani.
Source text: as §1

For the molecule `O=C(O)[C@@H]1C[C@H](O)CN1` [Cis‐4‐hydroxy‐L‐proline], the “LdG5K activity (%) with 1 mM” value at LdG5K [1] was 87%.

On LdG5K [2], `O=C(O)[C@@H]1CCN1` [L‐azetidine‐2‐carboxylic acid] showed an IC50 of 730 ± 70 µM.

On LdG5K [2], `O=C(O)[C@@H]1CCCN1` [L‐proline] showed a concentration for half-maximal inhibition (IC50) of 390 ± 80 µM. This IC50 lies about 1.9-fold lower than the previous one.

For the molecule `C[C@@]1(C(=O)O)CCCN1` [α‐methyl‐L‐proline], on LdG5K [1], the “LdG5K activity (%) with 1 mM” value was 82%.

With `O=C(O)[C@@H]1CSCN1` [L‐4‐thioproline], on LdG5K [2], the half-maximal inhibitory concentration (IC50) amounted to 1800 ± 200 µM.

Regarding `O=C(O)[C@H]1CN[C@H](C(=O)O)C1` [L‐trans‐pyrrolidine‐2,4‐dicarboxylic acid], at LdG5K [1], the “LdG5K activity (%) with 1 mM” value came to 84%.

Turning to `O=C(O)C1C=CCN1` (racemic) [3,4‐dehydro‐D,L‐proline], the IC50 at LdG5K [2] is 490 ± 20 µM.

`O=C(O)[C@@H]1C[C@@H](O)CN1` [Trans‐4‐hydroxy‐L‐proline]: the “LdG5K activity (%) with 1 mM” value on LdG5K [1] is recorded as 89%.

B1: Leishmania donovani glutamate 5-kinase (enzyme, UniProt A0A0R6Y3I5 1-263, looked up)
chain: T1 sequence (A0A0R6Y3I5 1-263)
notes: theoretical Mr 29.033 kDa; Cloned through BamHI/EcoRI into a modified pGEX-6P-1 with an in-frame N-terminal His-GST tag; also called LdG5K; G5K; source: E. coli C41(DE3) pLysS, purified (glutathione resin, on-column cleavage by PreScission protease); not shown: His, N-terminal, cleaved; GST, N-terminal, cleaved
Regarding B1, the “stoichiometry N” value in data set [3] was 4. Also, in data set [4], the K0.5 came out at 19.0 ± 2.9 mM and the kcat came to 13.5 ± 0.6 s⁻¹. In addition, in data set [5], the Km was determined as 10 ± 0.7 mM, the kcat was 12.8 ± 0.3 s⁻¹ and the kcat/Km came to 1280 M⁻¹ s⁻¹. Also, in data set [6], the Michaelis constant (Km) was 0.6 ± 0.07 mM, the kcat was 11.7 ± 0.3 s⁻¹ and the kcat/Km stood at 19500 M⁻¹ s⁻¹.
